# From publication PMC13065503
# Molecular target: ArtiMYC (3) (UniProt P01106)
# Assay: EMSA
# Settings: EMSA: 20 mM HEPES pH 8.0, 150 mM NaCl, 5% glycerol, 1 mM EDTA, 2 mM MgCl2, 0.5 mg/mL BSA, 1 mM DTT, 0.05% NP-40; 4 nM DNA; 30 min RT then 15 min on ice; 10% …
# Chain of ArtiMYC (3) (P01106 365-454): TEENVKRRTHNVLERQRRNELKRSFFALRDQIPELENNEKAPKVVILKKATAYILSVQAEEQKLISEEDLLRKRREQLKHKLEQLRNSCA
sequence,measurement,value
ACCCCACCACGTGGTGCCT (double strand) [E-box DNA],Kd,24 nM
